Molecular target: recombinant GST-BNIP3 protein (rat BNIP3) (rat)
Experiment: SDS-PAGE and Western blot; GST-BNIP3 incubated with isolated rat liver mitochondria for 1 hour at 37°C in calcium-free buffer; mitochondrial and supernatant fractions blotted with a BNIP3 antibody; 90 kD band

recombinant GST-BNIP3 protein (rat BNIP3) (natural protein)
stoichiometry N: 2
